Reference: patent CN111100204A

Columns and labels:
[1] = biological target: T1, 人CD20蛋白 (human CD20) (human) (UniProt P11836); test: indirect ELISA, recombinant human CD20 coated, rabbit anti-human IgG Fc-HRP
T1 sequence (looked up): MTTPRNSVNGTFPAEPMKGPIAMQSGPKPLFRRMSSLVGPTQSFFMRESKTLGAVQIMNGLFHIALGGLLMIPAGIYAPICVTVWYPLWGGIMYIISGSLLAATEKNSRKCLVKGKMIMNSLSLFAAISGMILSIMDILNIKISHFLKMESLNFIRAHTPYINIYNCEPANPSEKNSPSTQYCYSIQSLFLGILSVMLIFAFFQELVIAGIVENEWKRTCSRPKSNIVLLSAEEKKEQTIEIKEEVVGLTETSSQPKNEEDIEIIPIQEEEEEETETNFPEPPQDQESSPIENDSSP

[2] = biological target: T1, 人CD20蛋白 (human CD20) (human); test: SPR (Biacore), antibody captured on anti-human capture CM5 chip, antigen as analyte from 10 nM, 1:1 kinetic model

B1: 人源化抗体HB12 (humanized anti-CD20 antibody HB12) (antibody, part only; not given: IgG1 and kappa constant regions, human IgG1, V domains shown, part only)
VH: QVQLVQSGSELKKPGASVKVSCKASSYMHAVGMNWVKQAPGQGFEWMGWIYADSGTGGVTYVKGIIPTYAQGFTGRFVFSLDTSVSTAYLQISSLKAEDTATYYCDYYDGLYGMDVYGAGSFWGQGTTVTVSS
- EC50 [1]: 0.0256 µg/mL
- Kd [2]: 0.0218 nM
